Results published in patent publication US20240343814A1.
Changes are numbered by the printed parent chain.

B1: VRDN-02501 (antibody, V domains shown)
VH: EVQLVQSGGGLVKPGGSLRLSCAASHFTFSSFAMHWVRQAPGKGLEWISVIDTRGATYYADSVKGRFTISRDNAKNSLYLQMNSLRAEDTAVYYCARLGNFYYGMDVWGQGTTVTVSS
VL: EIVLTQSPGTLSVSPGERATLSCRASQSIGSSLHWYQQKPGQAPRLLIKYASQSLSGIPDRFSGSGSGTDFTLTISRLEPEDFAVYYCHQSSRLPHTFGQGTKVEIK
B2: VRDN-02568 (antibody, V domains shown)
VH: B1 VH with H26G, A33H, D52H, M105H
VL: B1 VL
B3: VRDN-02538 (antibody, V domains shown)
VH: B1 VH with H26G
VL: B1 VL with K49H
B4: VRDN-02562 (antibody, V domains shown)
VH: B1 VH with H26G, D52H, A96H
VL: B1 VL
B5: VRDN-02564 (antibody, V domains shown)
VH: B1 VH with H26G, D52H, M105H
VL: B1 VL
B6: VRDN-02569 (antibody, V domains shown)
VH: B1 VH with H26G, A33H, D52H
VL: B1 VL with Y50H
B7: VRDN-02553 (antibody, V domains shown)
VH: B1 VH with H26G, A33H
VL: B1 VL with Y50H
B8: VRDN-02571 (antibody, V domains shown)
VH: B1 VH with H26G, D52H, M105H
VL: B1 VL with Y50H
B9: VRDN-02554 (antibody, V domains shown)
VH: B1 VH with H26G, D52H
VL: B1 VL with Y50H
B10: VRDN-02561 (antibody, V domains shown)
VH: B1 VH with H26G, A33H, M105H
VL: B1 VL
B11: VRDN-02570 (antibody, V domains shown)
VH: B1 VH with H26G, A33H, M105H
VL: B1 VL with Y50H
B12: VRDN-02555 (antibody, V domains shown)
VH: B1 VH with H26G, A96H
VL: B1 VL with Y50H
B13: VRDN-02558 (antibody, V domains shown)
VH: B1 VH with H26G, A33H, D52H
VL: B1 VL
B14: VRDN-02563 (antibody, V domains shown)
VH: B1 VH with H26G, D52H, G104H
VL: B1 VL

target: Recombinant human his-tagged IGF 1R extracellular domain protein (human) (UniProt P08069); assay: SPR, captured IgG, IGF-1R ECD-his analyte, dissociation pH 6

Row | Kd [nM] | koff [s⁻¹] | kon [M⁻¹ s⁻¹] | Binder
1 | 0.0259 | 1e-06 | 38600 | B1
2 | 29.9 | 0.000129 | 4320 | B2
3 | 0.0463 | 1e-06 | 21600 | B3
4 | 1.34 | 0.00018 | 135000 | B4
5 | 1.48 | 0.000507 | 344000 | B5
6 | 1.51 | 0.000516 | 342000 | B6
7 | 1.56 | 0.000534 | 341000 | B7
8 | 2.15 | 0.000344 | 160000 | B8
9 | 1.53 | 0.000152 | 99500 | B9
10 | 1.64 | 0.000539 | 329000 | B10
11 | 1.76 | 0.000376 | 214000 | B11
12 | 0.851 | 0.000418 | 491000 | B12
13 | 3.15 | 0.00017 | 53900 | B13
14 | 3.46 | 0.000353 | 102000 | B14

target: Recombinant human his-tagged IGF 1R extracellular domain protein (human) (UniProt P08069); assay: SPR, captured IgG, IGF-1R ECD-his analyte, dissociation pH 7.4

Row | Kd [nM] | koff [s⁻¹] | kon [M⁻¹ s⁻¹] | Binder
15 | 0.911 | 0.00015 | 165000 | B1
